Legend:
[1] = molecular target: PD-L1 (antigen of the indirect ELISA for titre; not specified); experiment: indirect ELISA, ascites antibody
人PD-L1-His (human) = 人PD-L1-His (human) (UniProt Q9NZQ7); experiment: SPR; PD-L1-His captured by anti-His antibody on a CM5 chip, antibody as analyte 0-1000 nmol/L, 1:1 binding fit

Sequence of PD-L1 (antigen of the indirect ELISA for titre; not specified) (Q9NZQ7 whole entry): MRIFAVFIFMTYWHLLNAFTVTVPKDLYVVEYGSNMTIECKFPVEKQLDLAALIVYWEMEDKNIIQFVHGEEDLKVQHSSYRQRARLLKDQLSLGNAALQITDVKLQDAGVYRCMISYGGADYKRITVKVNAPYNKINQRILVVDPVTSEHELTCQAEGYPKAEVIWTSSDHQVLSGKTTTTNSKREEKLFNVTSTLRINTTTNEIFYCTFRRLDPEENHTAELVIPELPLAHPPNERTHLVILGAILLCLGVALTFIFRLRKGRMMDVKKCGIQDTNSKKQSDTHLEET

B1: PD-L1单克隆抗体 1A7 (antibody, part only; not given: light chain variable domain, V domains shown, part only)
VH: EVKLVESGGGLVKPGGSLKLSCAASGFTFSQTTMAWVRQIPEKRLEWVASIEEGGSCCFPDSALSRFTISRDNARNICYLQMNSLRSDDTAMYYCARAREACAGYFARWGQGTTLTVSS
- 腹水效价 (ascites titre) (titre (1:x dilution)) [1]: 2.56e+06
- Kd (人PD-L1-His (human)): 4.19 nM

Source: patent CN113117073A
